Assay: yeast display, Sf9 membrane polyspecificity reagent, FACS + sequencing; frameworks hold sequencing errors
Method in brief: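 A nanobody's polyreactivity label depends on the gate it was sorted from. Yeast display cells were stained with 10% biotinylated, detergent-solubilized Sf9 membrane reagent for 1 hour at 4 °C, enriched on streptavidin microbeads and sorted by FACS. The low and high (top ~1%) gates were set on anti-HA fluorescence for expression and streptavidin fluorescence for reagent binding.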

| Sequence | polyreactivity (PSR sort gate) |
| --- | --- |
| QVQLVESGGGLVQAGGSLRLSCAASGRIFYVYAMGWYRQAPGKERELVAGIRSGGSTNYADSVKGRFTISRDNAKNTVYLLMNSLKPEDTAVYYCAVQSYGALSPQLVYRRYDYWGQGTQVTVSS | high polyreactivity |
| QVQLVESGGGLVQAGRSLRLSCAASGRTFSVNAMGCYRQAPVKERELVAAISWDGGSTYYADSVKGRFTISRDNAKNTVYLQMISLKPEDTSVYDCNKDLYYAYDYWGQGSQVTVSS | low polyreactivity |
| QVQLVESGGGLVQAGGSLRLSCAASGVTFGGYAMGWYRQAPGKERELVAAISGSGGRTYYADSVKVRFTISRDNAMNTVYLQMNSLKPEDTAVYYCAADRASPYLENYWGQGTQVTVSS | low polyreactivity |
| QVQLVESGGGLVQAGGRLRLSCAASGSIFCVNAMGWSRQAPGKERELVATITGSSGITYYADSVKGRFTISRVNAKNTVYLQMNSVKPEDTAVYYCAAVLLKFAYNYNYWGQGTQVTVSS | low polyreactivity |
| QVQLVESGGGLVQAGGSLRLSCAASGITFSFYAMGWYRQAPGKERELVATIDSGGSTNYADSVKGRFTISRDNAKNTVYLQMNSLKPEDTAVYYCAVVFHYSTIGGGYRPRMYYWGQGTQVTVSS | low polyreactivity |
| QVQLVESGGGLVQAGGSLRLSCAASGRTFGSYVMVWYRQAPGKEREFVAVISGSVGSTYYADSVKGRFTISRDNAKNTVYLQMNSLKPEDTAVYYCARRGIRTSETKQYHQYNYWGQGTQVTVSS | low polyreactivity |
| QVQLVESGGGLVQAGGSLRLSCAASGRIYYSNDMRWYRQAPGKERELVAAISRRDGSTYYADSVKGRFTISRDNAKNTVYLQMNSLKPEDTAVYYCRYYSYRYGYWGQGTQVTVSS | high polyreactivity |
| QVQLVESGGGLVQAGGSLRLSCAASGSIFFAYDMGWYRQAPGKERELVAAISNIDGSTYYADSVKGRFTISRDNAKNTVYLQMNSVKPEDTAVYYCATRVYYLYDYWGQGTQVTVSS | low polyreactivity |
| QVQLVESGGGLVQAGGSLRLSCAASGIIFSSYAMGWYRQAPGKERELVAAIDWRGDSTYYADSVKGRFTISRDNAKNTVYLQMNSLKPEDTAVYYCAADGSTYDSVRYGYWGQGTQVTVSS | low polyreactivity |
| QVHLVESGGGLVQAGGSLRLSCAASGSIFYPYAMGWYRQAPGKERELVAAISGRGGNTYYADSVKGRFTISRDNAKNTVYFQMNSLKPEDTAVYYCAADRYYWSLYGYDYWGQGTQVTVSS | high polyreactivity |
| QVQLVESGGGLVQAGGSLRLSCAASGYIFQDYAMGWYRQAPAKERELVARISAGGGRTYYADSVKGRFTISRDNAKNTVYLQMISLKPEDTAVYYCAAPLSYYWVYIVRYGYDYWGQGTQVTVSS | low polyreactivity |
| QVHLVESRGGLVQAGGSLSLSCAASGITFYIYAMGWYRQAHGKERELVAAFTTSGDSTYYADSVKGRFTISRDNAKNTVYLQMNSLKPEDTAVYDCAAEYWYTYSWGQGTQVTVLS | low polyreactivity |
| QVQLVESGRGLVQAGGSLRLSCAASGSTFRGNAMGWYRQAPGKERELVAAISVTGGSTYYADSVKVRFTISRDNAKNTVYLQMNSLKPEDTAVYYCADRVQRGQYSFVRDYYYWGQGTQVTVSS | high polyreactivity |
| QVQLVESGGALVQAGGSHRLSCAASGRIFAGNAMGWYRMAPGKEMELLAAISKSGGSTYYADSVKGRFTISRDNAKNTVYLQMNSLKAEDTAVSYCAKLYYPVSDQYDYYYWGPGTQVTVSS | low polyreactivity |
| QDQLVESGGGLVQAGGSLRLSGAASGSTFDRYAMGWYRQAPGKEREFVAAITWGGGSTYYADSVKGRFTISRDNAKNTVYLQMNSLKPEDTAVYYCASRYGATFGYWGQGTQVTVSS | low polyreactivity |
| QVQLVESGGCLVQAGGSLRLSCAASGSTLIEYAMGWYRQAPGKESELVARISKSGDSTYYADSVKGRFTISRDNAKNTVYLQMISLKPEDTAVYYCAKYHRDGFYRSYLRTFDFGYWGQGTQVTVSS | low polyreactivity |
| QVQLQESGGGLVQAGGSLRLSCAASGTISQEDWMGWYRQAPGKEREFVAPIGLGSNTNSADSLKGRFTISRDNAKNTVYLHMNSLKPEDTAVYYCAVCVWQYSDHVYRGQGTQVTVSS | low polyreactivity |
| QVQLVESGGGLVQAGGSLRLSCAASGSTFEKNAMGWYRQAPGKEREFVAAISRRGGSTYYADSVKGRFTISRDNAKNTVYLQMNSLKPEDTAVYYCAAQQLTWYSYRGDYWGQGTQVTVSS | high polyreactivity |
| QVQLVESGGGLVQAGGSLRLSCAASGYIFHSYVMGWYRQAPGKERELVAAITSDDDSTFYADSVKGRFTISRDNAKNTVYLQMNSLKPEETGVYYCAADGYYQYDKDTYYSTSDYWGQGTQVTVSS | low polyreactivity |
| QVQLVESGGGLVQAGGSLRLSCAASGRIFAYYAMGWYRQAPGKERELVATISTGGGTYYADSVKGRFSISRDNAKNTVYLQMNSLKPEDTAVYYCAAAPYWYYGYYYWGQGTQVTVSS | high polyreactivity |
| QVQLVESGGGLVQAGGSLRLSCAASGSTFGKNAMGWYRQAPRKERELVAAISRSGGRTYYADSVKGRFTISRDNAKNTVYLQMNSLKPEDTAVYYCAREWYTAGSGDYWGQGTQVTVSS | low polyreactivity |
| QVQLVESGGGLVQAGGSLRLSCAASGRTLLPNAMGWYRPAPGKERELVADISTSDGSTRYADSVKGRFTISRDNAKNTVYLQMNSLKPEDTAVYYCAAGSEYYSYGGVRFSFYYWGQGTQVTVSS | low polyreactivity |

| Sequence | polyreactivity (PSR sort gate) |
| --- | --- |
| QVQLVESGGGLVQAGGSLRLSCAASGYIFAGYALGWYRQAPGKERELVARISRRGGITYYADSVKGRFTISRDNAKNTVYLQMNSLKPEDTAVYYCNGLGQSSSYDYWGQGTQVTVSS | high polyreactivity |
| QVQLVESGGGLVQAGGSLRLSCAASGFIFGIYAMGWYRQAPGKERELVAAISWRGDSTYYADSVKGRFTISRDNAKNTVYLQMNSLKPEDTAVYYCAAVYYKLVGWYSYRYGYWGQGTQVTVSS | low polyreactivity |
| QVQLVESGGGLVQAGGSLRLSCAASGITFGRNTMGWYRPAPGKERELVAAIDSGGNTYADSVKGRFTISRDNAKNTVYLQMNSLKAEDTAVYYCAVDGGEFSSYGYWGQGTQVTVSS | low polyreactivity |
| QVQLVESGGGLVQAGGSLRLSCAASGRIFSEYAMGWYRQAPGKERELVASISTSGGSTYYADSVKGRFTISRDNAKNTVYLQMNSLKPEDTAVYYCNVAYSRYPSYTYGYDHWGQGTQVTVSS | high polyreactivity |
| QVQLVESGGGLVQAGGSLRLSCAASGRTFVRYAMGWYRQAPAKERELVAVNSRRGGSTYYADSVKGRFTISRDNAKNTVYLQMNSLKPVDTAVYYFAADYVRSKYDYWGQGTQVTVSS | high polyreactivity |
| QVQLVESGGGLVPAGGSLRLSCAASGRTFYSYGMGWYRQAPGKERELVASISSSTGSTYYADSVKGRFTISRDNAKNTVYLQMNSLKPEDTAVYYCAKRYSWTRRYDYWGQGTQVTVSS | high polyreactivity |
| QVKLVESGGGLVQAGGSLRLTCAASGSTFGPYAMGWYRQEPGKERELVSTITRNGGSTYYADSVKGRFTISRDNAKNTVYLQMNSLKPEDTAVYYCNAEGRWSSFTQRMDYWGQGTQVTVSS | low polyreactivity |
| QVQLVESGGGLVQAGGSLRLSCAASGRIFGYYAMGWYRQAPGKERELVAAISSSGTSTYYADSVKGRFTISRDNAKNTVYLQMNSLKPEDTAVYYCAAYTYYEGDYWGQGTQVTVSS | low polyreactivity |
| QVQLVESGGGLVQAGGSLRLRCAASGSIFWWYTMGWYRQAPGKERELVASISWSGTSTYYADSVKGRFTISRDNAKYTVYLQMNSLKPEDTALYYCNAVVYWPGTPYTHDDWGQGTQVTVSS | low polyreactivity |
| QVKLVESGGGLVQAGGSLRLICAASGMTFVIYAMGWYRQAPGKERELVARNTWSGGSTYYADSEKGRFTISRDNSKNTVYLQMNSLNPEDSAVYYCAARRFYYYTAGYDYWGQGTQVTVSS | low polyreactivity |
| QVQLVESGGGLVQAGGSLRLSCAASGSTFPRYALGWYRQAPGKERELVAAISRSGGSTYYADSVKGRFTISRDNAKNTVYLQMNSLKPEDTAVYYCAARYERGSYKYDYWGQGTQVTVSS | high polyreactivity |
| PVQLVESGGGLVQAGGSLRLSCACSGRIFIYNSMGWYRQATGKEREFVAAISSSGGSTYYADSVKGRFTISRDNAKNTVYLHLNSLKPEDTAVYYCAAGGWPYSGGWFFQPNYYYWGQGTQVTVSS | low polyreactivity |
| QVQLVESGGGLVQAGGSLRLSCAASGSIFDDYAMGWYRKAPGKERELVAAITSGGSTYYADSVKGRFTISRDNAKNTVYLQMNSLKPEDTAVYYRATRYHWSSSFAPVGAYGYWGQGTQVTVSS | low polyreactivity |
| QVQLVESGGGLVQAGGSLRLSCAASGSTFGRNAMGWYRQAPGKERELVAAISRSGGSTYYADSVKGRFTISRDNAKNTVYLQMNRLKPEDTAVYYCAAAVSPGGVYGNRYYYWGQGTQVTVSS | high polyreactivity |
| QVQLVESGGGLVQAGGSLRLSCAASGSIFATYAMGWYRQAPGKERELVAAISSSGSRTYYADSVKGRFTNSRDNAKNTVYLQMNSLKPEDTAVYYCAAGSGRFRPGYGYWGQGTQVTVSS | high polyreactivity |
| QVQLVESGGGLVQAGGSLRLSSAASGRTFTYYAMGWYRQAPGTERELVAAISSGGRTDYADSVKGRFTISRDNAKNTVYLQMNSLKPEDTAVYYCNARPKVYYREYDYWGQGNQVTVSS | high polyreactivity |
| QVQLVESGGGLVQAGGSLRLSCAASGSIFWPNPMGGYRQAPGKERELVAGSTFSGGSTYADSVKGRFTISRDNAKNTVYLQMNSLKPEDTAVYYCAVVYYRDPRMDFWRQGTQVTVSS | high polyreactivity |
| QVQLVESGGGLVQAGGSLRLSCAASGFIFNLYAMGWYRQAPGKEREFVAGISYSGNTYYADSVKGRFTISRDNAKNTVYLQMNSLKPEDTAVYYCAARRGYNDGYWGQGTKVTVSS | high polyreactivity |
| QVQLVESGGGLVQAGGSLRLSCAASGSIFSQYVMGWYRQAPGKERELVAAISWSGGHTYYADSVKGRFTISRDNAKNTVYLQMNSLKPEDTAVYYCRAFFRRDYWGQGTQVTVSS | high polyreactivity |
| QVQLVESGGGLVQAGGSLRLSCAASGRIFWRYAMGWYRQAPGKERELVAGITYSGGRTYYADSVKGRFTISRDNAKNTVYLQMNSLTPEDTAVYYCAARGYFDALFDYWGQGTQVTVSS | low polyreactivity |
| QVQLVESGGGLVQAGGSLRLSCAASGRIFRGYAMGWYRQAPGKERELVATISAIGGSTYADSVKGRFTISRDNAKNTVYLQRNSLKPEDTAVYYCNVRKVYRYQYRFEYWGQGTQVTVSS | high polyreactivity |
